Target: the molecule itself
Assay: SEC; Superdex 200 10/300 GL, 10 mM Tris-HCl pH 7.5, 150 mM NaCl, 0.5 mL/min, 4°C; equivalent molar concentrations, incubated 15 minutes; molecular weight from BioRad gel-filtration standards

B1: IpgC (natural protein)
chain: MSLNITENESISTAVIDAINSGATLKDINAIPDDMMDDIYSYAYDFYNKGRIEEAEVFFRFLCIYDFYNVDYIMGLAAIYQIKEQFQQAADLYAVAFALGKNDYTPVFHTGQCQLRLKAPLKAKECFELVIQHSNDEKLKIKAQSYLDAIQDIKE
notes: also called translocator-specific chaperone from Shigella
stoichiometry N: 2
